# Laboratory results: patent publication US8114831B2, “Guanylate cyclase receptor agonists for the treatment of tissue inflammation and carcinogenesis” (Synergy Pharmaceuticals Inc., priority 2001, dated 2012)
# Positions of bridges follow the written chain, without caps; N, C: chain ends. No end group written: not given here.
# Assays:
# [1] = Heat stability: peptide solutions heated at 95° C., then tested for biological activity in the T84 cell-based assay; assay type: physicochemical; settings: 10 micromolar solution, read-out T84 cell-based assay
# Procedure: (§1) T84 cell-based assay for determining the intracellular levels of cGMP: Peptide analogs were custom synthesized by Multiple Peptide Systems, San Diego, Calif., and by Princeton Biomolecules, Langhorne, Pa. Biological activity of the synthetic peptides was assayed as previously reported (15). Briefly, the confluent monolayers of T-84 cells in 24-well plates were washed twice with 250 μl of DMEM containing 50 mM HEPES (pH 7.4), pre-incubated at 37° C. for 10 min with 250 μl of DMEM containing 50 mM HEPES (pH 7.4) and 1 mM isobutylmethylxanthine (IBMX), followed by incubation with peptide analogs (0.1 nM to 10 μM) for 30 min. The medium was aspirated, and the reaction was terminated by the addition of 3% perchloric acid. Following centrifugation, and neutralization with 0.1 N NaOH, the supernatant was used directly for measurements of cGMP using an ELISA kit (Caymen Chemical, Ann Arbor, Mich.).
# To examine heat stability, 10 micromolar solutions of peptide analogs were heated at 95° C. for up to 90 minutes. At specific times during the treatment, samples were tested for their biological activity in the T84 cell-based assay. […] Based on energy calculations and 3D structure, we expected that the negatively charged carboxyl group of the side chain in position 3 of SEQ ID NO:1 specifically interacts with a positively charged binding site on the receptor. […] At the same time, to ensure efficiency of this particular interaction, an entire system of the long-range electrostatic interactions between ligand and receptor should be well balanced. Since the Glu^2 side chain presents more conformational possibilities compared to the Asp^2 side chain, this balance may be slightly changed in SP302 (double substitution of Asp's for Glu's) compared to SP304 (single substitution of Asp^3 for Glu^3). Indeed, biological activity of SP 304 is the best amongst the analogs evaluated.
# [2] = target: T1, guanylate cyclase receptor (Homo sapiens, UniProt P25092); assay: T84 cell-based assay for determining the intracellular levels of cGMP; settings: for ability to enhance intracellular levels of cGMP (ranking in words): T84 cell-based assay, text summary of Table 4; for cGMP Level (intracellular cGMP level observed in T84 cells): 1 micromolar peptide agonist, 30 minutes
# T1 construct: host or cells: T84 human colon carcinoma cells
# T1 sequence (P25092 24-1073): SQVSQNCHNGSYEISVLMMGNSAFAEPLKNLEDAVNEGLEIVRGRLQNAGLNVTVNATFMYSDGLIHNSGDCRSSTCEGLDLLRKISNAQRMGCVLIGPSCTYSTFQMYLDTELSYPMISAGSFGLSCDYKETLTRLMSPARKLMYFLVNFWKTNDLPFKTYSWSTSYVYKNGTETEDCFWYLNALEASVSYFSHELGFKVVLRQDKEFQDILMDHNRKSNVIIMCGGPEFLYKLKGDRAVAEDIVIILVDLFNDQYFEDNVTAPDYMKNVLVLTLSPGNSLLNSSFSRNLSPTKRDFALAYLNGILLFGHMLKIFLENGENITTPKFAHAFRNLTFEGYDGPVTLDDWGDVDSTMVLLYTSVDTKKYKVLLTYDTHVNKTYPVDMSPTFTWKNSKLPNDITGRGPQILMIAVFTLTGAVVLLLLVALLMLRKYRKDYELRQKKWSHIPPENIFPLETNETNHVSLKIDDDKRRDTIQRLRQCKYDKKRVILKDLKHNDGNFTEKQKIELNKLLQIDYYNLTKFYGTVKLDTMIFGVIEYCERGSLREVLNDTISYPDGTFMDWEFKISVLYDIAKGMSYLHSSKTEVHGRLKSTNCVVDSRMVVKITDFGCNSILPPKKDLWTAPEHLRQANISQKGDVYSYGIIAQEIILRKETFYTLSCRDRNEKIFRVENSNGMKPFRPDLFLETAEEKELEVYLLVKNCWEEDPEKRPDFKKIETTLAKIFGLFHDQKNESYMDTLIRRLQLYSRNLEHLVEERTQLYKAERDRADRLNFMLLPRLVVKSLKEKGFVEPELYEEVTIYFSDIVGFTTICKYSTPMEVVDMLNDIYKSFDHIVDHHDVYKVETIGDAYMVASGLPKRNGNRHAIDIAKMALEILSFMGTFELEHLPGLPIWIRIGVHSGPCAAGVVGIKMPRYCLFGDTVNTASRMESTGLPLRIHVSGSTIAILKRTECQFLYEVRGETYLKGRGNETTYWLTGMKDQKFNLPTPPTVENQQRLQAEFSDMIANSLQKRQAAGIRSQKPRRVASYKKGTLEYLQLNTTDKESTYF
# Procedure: Cell Culture: Human T84 colon carcinoma cells were obtained from the American Type Culture Collection at passage 52. Cells were grown in a 1:1 mixture of Ham's F-12 medium and Dulbecco's modified Eagle's medium (DMEM) supplemented with 10% fetal bovine serum, 100 U penicillin/ml, and 100 μg/ml streptomycin. The cells were fed fresh medium every third day and split at a confluence of approximately 80%.
# as §1
# [3] = target: T1, guanylate cyclase receptor; assay: as above; settings: for intracellular production of cGMP at different pH values: pH 5 to 7
Substance,ability to enhance intracellular levels of cGMP (ranking in words) [2],cGMP Level (intracellular cGMP level observed in T84 cells) ([2]; T84 cells) [pmol/well],"intracellular cGMP level in combination with sulindac sulfone ([2]; T84 cells, combination with cGMP dependent phosphodiesterase inhibitor sulindac sulfone)","intracellular cGMP level in combination with Zaprinast ([2]; T84 cells, combination with cGMP dependent phosphodiesterase inhibitor zaprinast)","enhancement of intracellular cGMP, comparison among peptides ([3]; pH between 6.5 and 7)",biological activity after heating for 60 minutes [1],"biological activity after heating for 90 minutes, relative to original value [1]",intracellular production of cGMP at different pH values [3]
"SP 316: 14-residue peptide Glu Cys Glu Leu Cys Val Asn Val Ala Cys Thr Gly Cys Leu, positions 3-16, disulfides 4-12 and 7-15 (ECELCVNVACTGCL; disulfide 2-10, 5-13)",second in effectiveness,275,,,,,,
"Asn^1 Asp^2 Glu^3 Cys^4 Glu^5 Leu^6 Cys^7 Val^8 Asn^9 Val^10 Ala^11 Cys^12 Thr^13 Gly^14 Cys^15 Leu^16 (NDECELCVNVACTGCL; disulfide 4-12, 7-15) [SP 304, [Glu^3]-UG, [4,12; 7,15] bicycle with two disulfide linkages]",greatest enhancement of intracellular cGMP,315,synergistic increases,synergistic increases,greatest enhancement,did not change significantly,remained unaltered,enhanced intracellular production of cGMP
"bicyclo[4,12; 7,15]Asn^1-Asp^2-Asp^3-Cys^4-Glu^5-Leu^6-Cys^7-Val^8-Asn^9-Val^10-Ala^11-Cys^12-Thr^13-Gly^14-Cys^15-Leu^16 (NDDCELCVNVACTGCL; disulfide 4-12, 7-15; listed as Homo sapiens) [SP 301, human uroguanylin, parent compound, reference compound]",somewhat weaker,205,,,,did not change significantly,about 80%,enhanced intracellular production of cGMP

# More lines, main results first:
ability to enhance intracellular levels of cGMP (ranking in words) [2],cGMP Level (intracellular cGMP level observed in T84 cells) ([2]; T84 cells) [pmol/well],"intracellular cGMP level in combination with sulindac sulfone ([2]; T84 cells, combination with cGMP dependent phosphodiesterase inhibitor sulindac sulfone)","intracellular cGMP level in combination with Zaprinast ([2]; T84 cells, combination with cGMP dependent phosphodiesterase inhibitor zaprinast)","enhancement of intracellular cGMP, comparison among peptides ([3]; pH between 6.5 and 7)",Substance,biological activity after heating for 60 minutes [1],"biological activity after heating for 90 minutes, relative to original value [1]",intracellular production of cGMP at different pH values [3]
somewhat weaker,225,,,,"[Glu^2, Glu^3]-UG (NEECELCVNVACTGCL; ends and bridges not checked; cysteine pairing not given here; UniProt Q16661 97-112, looked up, variant D2E D3E) [SP 302, uroguanylin analog, double substitution of Asp's for Glu's]",did not change significantly,about 80%,enhanced intracellular production of cGMP
somewhat weaker,195,,,,"[Glu^2]-UG (NEDCELCVNVACTGCL; ends and bridges not checked; cysteine pairing not given here; UniProt Q16661 97-112, looked up, variant D2E) [SP 303, uroguanylin analog with Glu in position 2]",did not change significantly,about 80%,enhanced intracellular production of cGMP
